Data taken from the nanobody polyreactivity screen of Harvey et al. (2022).

Experiment: yeast display, Sf9 membrane polyspecificity reagent, FACS + sequencing; frameworks hold sequencing errors
Method in brief: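 After 36–48 hours of galactose induction, yeast (Saccharomyces cerevisiae BJ5465) displaying a synthetic nanobody library were stained at 4 °C for 1 hour with 10% biotinylated, detergent-solubilized Sf9 membrane reagent. Streptavidin microbeads enriched the stained cells before FACS sorting into low and high (top ~1%) gates on anti-HA and streptavidin fluorescence. Each clone's polyreactivity label reflects its gate of origin.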

Row | Sequence | polyreactivity (PSR sort gate)
1 | QVQLVESGGGLVQAGCSLRLTCAASGRTFITNAKGWYRQAPVKERELVAAISSGTGGRTNYADSVKGRFTISRDNAKNTVYLQMNSRKPEDTAVYYCAARSTKYYPYGYWGQGTQVTLSS | high polyreactivity
2 | QVQLVESGGGLVQAGCSLRVSSAASGRIFVYYAMGRYRQAPGKERELVAAIRWTGGSTYYADSVKGRFTISRDNAKNTVYLQMNSVKPEDTAVYYCATVNRYCHFNYWGQGTQVTVSS | high polyreactivity
3 | QVQLVESGGGLVQAGFSLRLSCAASGSIFFIYDKGWYRQAPGKERELVADITSGGGSTFYADSVKGRFTISRDNAKNTVYLQMNSLKPEDTAVYYCATDDHDQPGGQLYISEVNYWGQGTQVTVSS | low polyreactivity
4 | QVQLVESGGGLVQAGGCLRLSCAASGFTFPFYAMGWYRQAPGKERELVAAITSRGGSTYYADSVKGRFTISRDNAKNTVYLQMNSLKPEHTAVYYCAARYTPRRYYYWGQGTQVTVSS | high polyreactivity
5 | QVQLVESGGGLVQAGGGLRLSCAASGRIFSPYAMGWDRQSPGKEMELVAAIRRSGVDTYYADSVKGRFTISRDNAKNTVYLQINSLKPEDTAVYYCAADPYWFFPHYDSWGQGTQVTVSS | low polyreactivity
6 | QVQLVESGGGLVQAGGGLRLSCAASGSTFVKNAMGWYRQAPGKERELVAAISYRGGRTYYADSVKGRFTISRDNAKNTVYLQMNSLKPEDTAVYYCAADASHLTGSEYWGQGTQVTVSS | high polyreactivity
7 | QVQLVESGGGLVQAGGILLLSCAASGGTFENYAMGWYIQAPGKERELVAAISSGGSTNYADSVKGRFTISRDNAKNTVYLQMNRLKPEDTAVYYCARYRVWGSNGHKLFHYDYWGQGTQVTVSS | low polyreactivity
8 | QVQLVESGGGLVQAGGILLLSCAASGSIFKPYAMGWYTQAPGKERELVAAISKRGGSTSYADSVKGRFTISRDNAKNSVYLQMNSLKPEDTAVYYCAAVAAFSGLSWYDYWGLGTQVTVSS | high polyreactivity
9 | QVQLVESGGGLVQAGGILRISCAASGFIFDLYAMGWYRQAPGKERELVAAISGSGGSTYYADSVKGRFTISRDNAKNTVYLQMNSLKPEDTAVYYCAARRFGTNYDYWGQGTQVTVSS | high polyreactivity
10 | QVQLVESGGGLVQAGGILRLSCAASGFIFEYYAMGWYRQAPGKERELVAAINGGGGNTYYADSVKGRFTISRDNAKNTVYLQMNSLKPEDTAVYYCNAKRRKYRYDYWGQGTQVTVSS | high polyreactivity
11 | QVQLVESGGGLVQAGGILRLSCAASGFIFSSNAMGWYRQAPGKERELVAAITSSGGGTYYADSVKGRFTISRDNAKNTVYLQMNSLKPEDTAVYYCNAAYKYAIPSYGYWGQGTQVTVSS | low polyreactivity
12 | QVQLVESGGGLVQAGGILRLSCAASGFIFWYNAMGWYRQAPGKERELVARINIGGTTSYADSVKGRFTISRDNAKNNVYLQMNSLKREDTAVYYCNAVQGRQYDYWGQGTQVNVSS | low polyreactivity
13 | QVQLVESGGGLVQAGGILRLSCAASGFTFSSNAMGWYRPAPGKERELVAAISKGGGSTYYADSVKGRFTISRDNAKNSVYLQMNSLKPEDTAVYYCATRRRGGLTFDSWGQGTQVTVSS | high polyreactivity
14 | QVQLVESGGGLVQAGGILRLSCAASGFTFVGNAMGWYRKAAGKERELVATITSGGNTKYADSVKGRFTISRDNAKNTVYLQMNSLTPEDTAVYYCAAAKYNYRRFKYWGQGTQVTVSS | low polyreactivity
15 | QVQLVESGGGLVQAGGILRLSCAASGIIFGYYAMGWYRQAPGKERELVAAISSIGGSTYYADSVKGRFTISRDNAKNTVYLQMNSLKPEDTAVYYCAAKYYGRYYRYLGSSFDYWGQGTQVTVSS | high polyreactivity
16 | QVQLVESGGGLVQAGGILRLSCAASGIIFQRNEMGWYRQTPGKERELVANIRDGGITYADSVKGRFTISRDNAKNTVYLEMNSLKPEDTAVYYCARDDTSPGYCDQSSNAAYYYWGQGTQVTVSS | low polyreactivity

Row | Sequence | polyreactivity (PSR sort gate)
17 | QVQLVESGGGLVQAGGILRLSCAASGIIFSEYAMGWYRQAPGKERELVAAISKSSGSTRYADSVKGRFTISRDNAKNTVYLQMNSLKPEDTAVYYCAREYRWRYGYDYWGQGTQVTVSS | high polyreactivity
18 | QVQLVESGGGLVQAGGILRLSCAASGITFGGYAMAWYRQAPGKERELVAAISRGGGSTNYADSVKGRFTISRDNAKNTVYLQINSLKPEDTAVYYCNARRQNSRYDYWGQGTQVTVSS | low polyreactivity
19 | QVQLVESGGGLVQAGGILRLSCAASGLIFNYYAMGWYRQAPGKERELVADITRGGSTNYADSVKGRFTISRDNANFTVYVQMNSMKPEDSAVYYCAARVRGWWYRYDYWGHGTQVTVSS | high polyreactivity
20 | QVQLVESGGGLVQAGGILRLSCAASGLTFAKNAMGWYRQAPGKERELVAAITTGGSTYYADSVKGRFTISRDNAKNTVYLQMNSLKPEDTAVYYCAAQILVRHIPYYFWGQGSQVTVSS | high polyreactivity
21 | QVQLVESGGGLVQAGGILRLSCAASGLTFYGYAMGWYRQAPGKERELVAAITRGGGSTYYADSVKGRFTISRDNAKNTVYLQMNSLKPDDTAVYYCAADQTGWGDTYYYWGQGTQVTVSS | low polyreactivity
22 | QVQLVESGGGLVQAGGILRLSCAASGRIFTSNPMGWYRQAPGKEREFVAAISGSGDGTYYADSVKGRFTISRDTAKNTVYLQMNSLKPEDTAVYYCAARRRGTYPYPMGYWGQGTQVTVSS | high polyreactivity
23 | QVQLVESGGGLVQAGGILRLSCAASGRIFVFYFMGWYRQAPGKERELVAAITRTGGSTYYADSVKGRFTISRDNAKNTVYLQMNSLKPEDTAFYYCATRYTRFRHFDYWGQGSQVTVSS | low polyreactivity
24 | QVQLVESGGGLVQAGGILRLSCAASGRTFAYNTMGWYRQAPGKERQLVAAISSDGSTNYADSVKGRFTISRDNAKNTVYLQMNSLKPEDTAVYYCAKGEGTGTSDTQVYEHDYWGQGTQVTVSS | low polyreactivity
25 | QVQLVESGGGLVQAGGILRLSCAASGRTFGRNAMGWYRQAQGKERELVAGISIGGGTTYYADSVKGRFTISRDNAKNTVYLQMNSLKPEDTAVYYCAARSWSYLHRYGYWGQGTLVTVSS | high polyreactivity
26 | QVQLVESGGGLVQAGGILRLSCAASGRTFTPYALGWYRQAAGKERDLVAAISSRGGSTYYADSVKGRFTISRDYAKNTVDLQMNSLKPEDTAVYYCNATQYPAADRYTNNYGGGFDYWGQGTQVTVSS | low polyreactivity
27 | QVQLVESGGGLVQAGGILRLSCAASGSIFRPYAMGWYRQAPGKERELVAAIRWSTRNTYYADSVKGRFTISRDNAKNTVYLQMNSLKPEDTAVYYCAAAYWPVVWFYYWGQGTQVTVSS | low polyreactivity
28 | QVQLVESGGGLVQAGGILRLSCAASGSIFYAYDKGWYRQAPGKERELVAGISSSDSTYYADSVKGRFTISRDNAKNTVYLQLNSLKPEDTAVYYCAADPVFAAAYIHLYGIYDTWGQGTQVTVSS | low polyreactivity
29 | QVQLVESGGGLVQAGGILRLSCAASGSILDLNAMGWYRQAPGKERELFAAISYSGDSTYYADSVKGRFTISRDNAKNTVYLQMNSLKPEDTAVYEGAAEVYGAVYDYWGQGTQVTVAS | low polyreactivity
30 | QVQLVESGGGLVQAGGILRLSCAASGSTFAGYAMGWYRQAPGKERELVATITYSGASTYYADSVKGRFTISRDNAKITVYLQMNSLKPEDTAVYYCGKKASYWWGYEYWGQGTQVTVSS | low polyreactivity
31 | QVQLVESGGGLVQAGGILRLSCAASGSTFGFNAMGWYRQAPGKERELVASITSGDSTYYADSVKGRFTISRDNAKNTVYLQMNSLKPEDTAVYYCAKVGGGGQAGDNPILSDYWGQGTQVTVSS | low polyreactivity
32 | QVQLVESGGGLVQAGGILRLSCAASGSTFRLNAMVWYRQEPGKERELVASIRWSVGITYYADSVKGRFTISLDNSKNTFYLQMNSLKPEDTAVYYCANGDTNWRYYYWGQGTQVTVSS | high polyreactivity
